Laboratory results reported in PMC3660353.
“And” between values parts separate entries of the source, which are not always exact repeats. Identical values can stand only once.

T1: recombinant, full-length human claudin-1 (human), O95832
T1 chain: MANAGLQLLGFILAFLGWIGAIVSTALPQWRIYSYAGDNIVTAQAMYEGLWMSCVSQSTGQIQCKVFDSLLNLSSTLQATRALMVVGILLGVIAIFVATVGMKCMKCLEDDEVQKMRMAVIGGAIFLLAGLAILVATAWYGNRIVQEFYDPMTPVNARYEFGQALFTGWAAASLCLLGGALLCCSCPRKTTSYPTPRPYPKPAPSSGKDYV


Legend:
[1] = biological target: recombinant, full-length human CD81 with six putative palmitoylation sites mutated to alanine (human) (UniProt P60033); test: dynamic light scattering; single purified proteins in detergent micelles (claudin-1 in foscholine-10, CD81 in βOG), with and without CHEMS, 20°C; oligomeric state predicted from the hydrodynamic radius
[2] = biological target: recombinant, full-length human claudin-1 (human) (UniProt O95832); test: dynamic light scattering; purified proteins in detergent micelles (claudin-1 in foscholine-10, CD81 and CD82 in βOG) mixed at a 1:2 molar ratio, with and without CHEMS, 20 mM MOPS pH 8, 1% βOG, 20°C, followed for 23-36 h
[3] = biological target: T1, recombinant, full-length human …; test: AUC; claudin-1 in βOG micelles; sedimentation velocity, continuous c(s) distribution model (SEDFIT); details: remark: other sources report otherwise
[4] = biological target: T1, recombinant, full-length human …; test: reducing SDS-PAGE (Coomassie); proteins solubilised in βOG and eluted from a nickel affinity column; details: remark: other sources report otherwise
[5] = biological target: T1, recombinant, full-length human …; test: non-reducing SDS-PAGE with immunoblot; P. pastoris total membranes, 1 µg protein per well, sample buffer without β-mercaptoethanol, 12% gel, blot with anti-His6; details: remark: other sources report otherwise
[6] = biological target: T1, recombinant, full-length human …; test: dynamic light scattering; single purified proteins in detergent micelles (claudin-1 in foscholine-10, CD81 in βOG), with and without CHEMS, 20°C; oligomeric state predicted from the hydrodynamic radius; details: remark: other sources report otherwise

stoichiometry N [3] | stoichiometry N [4] | stoichiometry N [5] | stoichiometry N [6] | Molecule | stoichiometry N [1] | stoichiometry N [2]
 |  |  |  | recombinant, full-length human CD81 with six putative palmitoylation sites mutated to alanine (from UniProt P60033 1-236) (natural protein) | 2 | 2
2 | 2 | 2 and 3 | 2 | recombinant, full-length human claudin-1, O95832 1-211 (natural protein) MANAGLQLLGFILAFLGWIGAIVSTALPQWRIYSYAGDNIVTAQAMYEGLWMSCVSQSTGQIQCKVFDSLLNLSSTLQATRALMVVGILLGVIAIFVATVGMKCMKCLEDDEVQKMRMAVIGGAIFLLAGLAILVATAWYGNRIVQEFYDPMTPVNARYEFGQALFTGWAAASLCLLGGALLCCSCPRKTTSYPTPRPYPKPAPSSGKDYV |  | 
